Patent US20220235118A1 (IMMUNOME, published 2022)

B1: PR200_00622 (antibody, V domains shown)
VH: QVQLVESGGGVVQPGRSLRLSCTASGFTFSTYGMHWVRQAPGKGLEWVAVISYDGSSKHYAESVKGRFTISRDNSNNTLYLQMNRLRAEDTAVYYCARDGQPPGWGNYFDYWGQGTLVTVAS
VL: SYVLTQPPSVSVAPGKTARITCGGNGIGSKSVYWYQQKPGQAPEVVVYDDSDRPSGIPERFSGSNSGNTATLTISRVEAGDEADYYCQVWDSSSDPWVFGGGTKLTVL
notes: also called IMM20253; PR200_00253
B2: PR193_00018 (antibody, V domains shown)
VH: EVQLVESGGGLVQPGGSLRLSCSASGFTFSSFWMSWVRQAPGKGLEWVATIREDGSEKYYVDSVKGRFSISRDNAKNSLYLQMNSLRAEDTAVYYCARSKWLRGSFDYWGQGTLVTVSS
VL: NFMLTQPHSVSESPGKTVTISCTRRSGSIASNYVQWYQQRPGSAPTTVIYEDNQRPSGVPDRFSGSIDSSSNSASLTISGLQTEDEADYYCQSYDSSNPPGASWVFGGGTKLTVL
notes: also called IMM20184; IMM200184
B3: PR194_00232 (antibody, V domains shown)
VH: EVQLVESGGGLVQPGGSLRLSCSASGFTVSSNYMSWVRQAPRKGLEWVSVIYAGGSTFYADSVKGRFTISRDNSKNTLLLQMNSLRAEDTAVYYCARDRGGYLDYWGQGTLVTVSS
VL: DIQMTQSPSSLSASVGDRVTITCRASQGISNYLAWYQQKPGKVPKLLIYAASTLQSGVPSRFSGSGSGTDFTLTISSLQPEDVATYYCQKYNSAPGLTFGGGTKVEIK
notes: also called IMM20190; PR194_00190

Assays:
[1] = molecular target: T1, SARS-CoV-2 Spike receptor binding domain (RBD), reference (USA/WA_CDC-WA1/2020) (SARS-CoV-2, UniProt P0DTC2 319-591); assay: SPR, antibody as ligand, RBD as analyte
[2] = molecular target: T2, SARS-CoV-2 Spike S1 domain, reference (SARS-CoV-2, UniProt P0DTC2 16-685); assay: HTRF, soluble S1 construct
T2 construct: domain: S1; also called S1 subunit

[3] = molecular target: T1, SARS-CoV-2 Spike receptor binding …; assay: HTRF, soluble RBD construct
[4] = molecular target: T3, SARS-CoV-2 Spike, full-length S (FL, trimer-stabilized), reference (WA1/2020) (SARS-CoV-2, UniProt P0DTC2 14-1208); assay: SPR, antibody as ligand, Trimer as analyte
T3 construct: also called Spike trimer; intact trimer

Row | Binder | Kd [1] [nM] | koff [1] [s⁻¹] | kon [1] [M⁻¹ s⁻¹] | EC50 [2] [nM] | EC50 [3] [nM] | Kd [4] [nM] | koff [4] [s⁻¹] | kon [4] [M⁻¹ s⁻¹]
1 | B1 | 0.157 | 0.000218 | 1.39e+06 | 0.0491 | 0.0527 | 1.44 | 0.000117 | 81300
2 | B2 | 22 | 0.00131 |  | 0.0318 | 0.0448 | 7.35 | 0.000229 | 31200
3 | B3 | 1.87 | 0.000376 | 202000 | 0.056 | 0.0682 | 6.59 | 0.000195 | 29500
